Measured values reported in US9062100B2, “Anti-human TROP-2 antibody having anti-tumor activity in vivo” (LIVTECH, INC., dated 2015).
Where no end group is shown, it is not given here.

Columns and labels:
[1] = molecular target: T1, human TROP-2 (hTROP-2) (human); experiment: FACS on BxPC-3 cells
T1 chain: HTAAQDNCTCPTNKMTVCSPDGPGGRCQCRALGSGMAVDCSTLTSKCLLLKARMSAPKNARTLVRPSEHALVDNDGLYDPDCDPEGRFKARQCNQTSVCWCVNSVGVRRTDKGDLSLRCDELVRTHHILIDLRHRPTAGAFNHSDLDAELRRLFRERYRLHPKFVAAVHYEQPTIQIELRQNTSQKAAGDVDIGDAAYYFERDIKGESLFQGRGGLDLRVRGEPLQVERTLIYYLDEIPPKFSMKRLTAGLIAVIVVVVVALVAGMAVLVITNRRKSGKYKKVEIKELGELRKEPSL

[2] = molecular target: T2, Table 9 peptide No. 17 (human, not fully specified); experiment: PEPSCAN CLIPS peptide ELISA
T2 peptide: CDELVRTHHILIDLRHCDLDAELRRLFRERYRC

[3] = molecular target: T3, Table 9 peptide No. 23 (human, not fully specified); experiment: PEPSCAN CLIPS peptide ELISA
T3 peptide: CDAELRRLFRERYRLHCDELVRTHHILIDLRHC

[4] = molecular target: T4, Table 9 peptide No. 1 (human, not fully specified); experiment: PEPSCAN CLIPS peptide ELISA
T4 peptide: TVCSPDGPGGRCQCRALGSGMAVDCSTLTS

[5] = molecular target: T5, Table 9 peptide No. 5 (human, not fully specified); experiment: PEPSCAN CLIPS peptide ELISA
T5 peptide: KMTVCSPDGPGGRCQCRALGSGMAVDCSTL

[6] = molecular target: T6, Table 9 peptide No. 24 (human, not fully specified); experiment: PEPSCAN CLIPS peptide ELISA
T6 peptide: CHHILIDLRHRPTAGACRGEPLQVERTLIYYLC

[7] = molecular target: T7, Table 9 peptide No. 7 (human, not fully specified); experiment: PEPSCAN CLIPS peptide ELISA
T7 peptide: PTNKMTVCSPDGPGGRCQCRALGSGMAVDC

[8] = molecular target: T8, Table 9 peptide No. 2 (human, not fully specified); experiment: PEPSCAN CLIPS peptide ELISA
T8 peptide: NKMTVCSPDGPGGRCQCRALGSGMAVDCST

[9] = molecular target: T9, Table 9 peptide No. 9 (human, not fully specified; cysteine pairing not given here); experiment: PEPSCAN CLIPS peptide ELISA
T9 peptide: CTHHILIDLRHRPTAGC

[10] = molecular target: T10, Table 9 peptide No. 28 (human, not fully specified); experiment: PEPSCAN CLIPS peptide ELISA
T10 peptide: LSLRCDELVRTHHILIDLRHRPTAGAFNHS

[11] = molecular target: T11, Table 9 peptide No. 20 (human, not fully specified); experiment: PEPSCAN CLIPS peptide ELISA
T11 peptide: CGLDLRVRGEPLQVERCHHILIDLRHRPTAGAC

[12] = molecular target: T12, Table 9 peptide No. 4 (human, not fully specified); experiment: PEPSCAN CLIPS peptide ELISA
T12 peptide: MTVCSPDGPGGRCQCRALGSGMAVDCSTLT

[13] = molecular target: T13, Table 9 peptide No. 13 (human, not fully specified); experiment: PEPSCAN CLIPS peptide ELISA
T13 peptide: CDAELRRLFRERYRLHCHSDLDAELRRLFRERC

[14] = molecular target: T14, Table 9 peptide No. 15 (human, not fully specified); experiment: PEPSCAN CLIPS peptide ELISA
T14 peptide: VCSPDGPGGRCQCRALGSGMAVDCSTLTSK

[15] = molecular target: T15, Table 9 peptide No. 22 (human, not fully specified); experiment: PEPSCAN CLIPS peptide ELISA
T15 peptide: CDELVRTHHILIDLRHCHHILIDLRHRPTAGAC

[16] = molecular target: T16, Table 9 peptide No. 3 (human, not fully specified); experiment: PEPSCAN CLIPS peptide ELISA
T16 peptide: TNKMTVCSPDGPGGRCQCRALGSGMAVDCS

[17] = molecular target: T17, Table 9 peptide No. 8 (human, not fully specified); experiment: PEPSCAN CLIPS peptide ELISA
T17 peptide: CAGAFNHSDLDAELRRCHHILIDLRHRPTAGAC

[18] = molecular target: T18, Table 9 peptide No. 25 (human, not fully specified; cysteine pairing not given here); experiment: PEPSCAN CLIPS peptide ELISA
T18 peptide: CSPDGPGGRCQCRAL

[19] = molecular target: T19, Table 9 peptide No. 27 (human, not fully specified); experiment: PEPSCAN CLIPS peptide ELISA
T19 peptide: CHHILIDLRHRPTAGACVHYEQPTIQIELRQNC

[20] = molecular target: T20, Table 9 peptide No. 12 (human, not fully specified); experiment: PEPSCAN CLIPS peptide ELISA
T20 peptide: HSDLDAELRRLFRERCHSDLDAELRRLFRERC

[21] = molecular target: T21, Table 9 peptide No. 19 (human, not fully specified); experiment: PEPSCAN CLIPS peptide ELISA
T21 peptide: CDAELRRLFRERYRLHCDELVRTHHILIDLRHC

[22] = molecular target: T22, Table 9 peptide No. 10 (human, not fully specified); experiment: PEPSCAN CLIPS peptide ELISA
T22 peptide: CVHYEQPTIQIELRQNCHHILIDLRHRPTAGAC

[23] = molecular target: T23, Table 9 peptide No. 6 (human, not fully specified); experiment: PEPSCAN CLIPS peptide ELISA
T23 peptide: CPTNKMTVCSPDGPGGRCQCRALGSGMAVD

[24] = molecular target: T24, Table 9 peptide No. 16 (human, not fully specified); experiment: PEPSCAN CLIPS peptide ELISA
T24 peptide: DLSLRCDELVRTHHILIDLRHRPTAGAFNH

[25] = molecular target: Table 9 peptide No. 26 (human); experiment: PEPSCAN CLIPS peptide ELISA
Table 9 peptide No. 26 (human), sequence (peptide, as listed by the source): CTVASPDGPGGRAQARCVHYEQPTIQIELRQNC

[26] = molecular target: T25, Table 9 peptide No. 18 (human, not fully specified; cysteine pairing not given here); experiment: PEPSCAN CLIPS peptide ELISA
T25 peptide: CFQGRGGLDLRVRGEPC

[27] = molecular target: T26, Table 9 peptide No. 14 (human, not fully specified; cysteine pairing not given here); experiment: PEPSCAN CLIPS peptide ELISA
T26 peptide: CDAELRRLFRERYRLHCPK

[28] = molecular target: T27, Table 9 peptide No. 21 (human, not fully specified); experiment: PEPSCAN CLIPS peptide ELISA
T27 peptide: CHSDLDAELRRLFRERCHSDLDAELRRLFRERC

[29] = molecular target: Table 9 peptide No. 29 (human); experiment: PEPSCAN CLIPS peptide ELISA
Table 9 peptide No. 29 (human), sequence (peptide, as listed by the source): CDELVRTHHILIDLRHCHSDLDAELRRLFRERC

[30] = molecular target: T28, Table 9 peptide No. 11 (human, not fully specified); experiment: PEPSCAN CLIPS peptide ELISA
T28 peptide: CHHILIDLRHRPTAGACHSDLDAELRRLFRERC

[31] = molecular target: T29, recombinant protein of the extracellular region of hTROP-2 (human); experiment: ELISA of free antibody after equilibration with antigen in solution
T29 sequence: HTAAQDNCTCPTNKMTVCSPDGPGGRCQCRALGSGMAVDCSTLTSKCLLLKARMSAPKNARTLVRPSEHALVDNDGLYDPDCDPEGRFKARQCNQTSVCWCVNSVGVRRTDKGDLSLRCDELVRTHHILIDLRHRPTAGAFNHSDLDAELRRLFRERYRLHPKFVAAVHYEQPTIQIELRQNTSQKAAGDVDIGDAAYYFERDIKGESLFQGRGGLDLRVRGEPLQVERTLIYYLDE

[32] = molecular target: T1, human TROP-2 (hTROP-2); experiment: FACS on PK-59 cells

B1: anti-hTROP-2 monoclonal antibody K5-116-2-1 (antibody, V domains shown)
VH: QVQLQQPGAELVRPGASVKLSCKASGYTFTSYWITWVKQRPGQGLEWIGNIYPSDSYTNYNQKFRDKATLTVDKSSSTAYMQLSSPTSEDSAVYYCSALFDYWGQGTTLTVSS
VL: DILLTQSPAILSVSPGERVSFSCRASQSIGTSIHWYQQRTNGSPRLLIKYASESISGIPSRFSGSGSGTDFILSINSVESEDIADYYCQQSNSWPFTFGSGTKLEIK
mean fluorescence intensity, times that with PE-labeled anti-mouse IgG only [1]: 121 times | binding of K5-116-2-1 [2]: 1390 | binding of K5-116-2-1 [3]: 1270 | binding of K5-116-2-1 [4]: 2670 | binding of K5-116-2-1 [5]: 2420 | binding of K5-116-2-1 [6]: 1230 | binding of K5-116-2-1 [7]: 1720 | binding of K5-116-2-1 [8]: 2610 | binding of K5-116-2-1 [9]: 1590 | binding of K5-116-2-1 [10]: 1220 | binding of K5-116-2-1 [11]: 1340 | binding of K5-116-2-1 [12]: 2440 | binding of K5-116-2-1 [13]: 1460 | binding of K5-116-2-1 [14]: 1430 | binding of K5-116-2-1 [15]: 1320 | binding of K5-116-2-1 [16]: 2480 | binding of K5-116-2-1 [17]: 1640 | binding of K5-116-2-1 [18]: 1230 | binding of K5-116-2-1 [19]: 1220 | binding of K5-116-2-1 [20]: 1470 | binding of K5-116-2-1 [21]: 1370 | binding of K5-116-2-1 [22]: 1500 | binding of K5-116-2-1 [23]: 2140 | binding of K5-116-2-1 [24]: 1420 | binding of K5-116-2-1 [25]: 1220 | binding of K5-116-2-1 [26]: 1380 | binding of K5-116-2-1 [27]: 1440 | binding of K5-116-2-1 [28]: 1330 | binding of K5-116-2-1 [29]: 1200 | binding of K5-116-2-1 [30]: 1480 | Kd [31]: 0.0269 nM | mean fluorescence intensity, times that with PE-labeled anti-mouse IgG only [32]: 122 times
